Source: article PMC8000408, “Inhibition of NUPR1–Karyopherin β1 Binding Increases Anticancer Drug Sensitivity” (International Journal of Molecular Sciences, 2021)

Legend:
[1] = molecular target: T1, Cy5-labeled karyopherin β1 (KPNB1) (UniProt Q14974 1-876, Cy5 label (site not stated)); experiment: single-molecule pull-down (TIRF microscopy); GST-NUPR1 immobilised; observed rate constants at various concentrations of karyopherin β1, fitted with a Michaelis-Menten equation; settings: both partners purified
T1 construct: Karyopherin β1 (KPNB1, importin β1); also called importin β1; Cy5-KPNB1
T1 sequence (Q14974 whole entry): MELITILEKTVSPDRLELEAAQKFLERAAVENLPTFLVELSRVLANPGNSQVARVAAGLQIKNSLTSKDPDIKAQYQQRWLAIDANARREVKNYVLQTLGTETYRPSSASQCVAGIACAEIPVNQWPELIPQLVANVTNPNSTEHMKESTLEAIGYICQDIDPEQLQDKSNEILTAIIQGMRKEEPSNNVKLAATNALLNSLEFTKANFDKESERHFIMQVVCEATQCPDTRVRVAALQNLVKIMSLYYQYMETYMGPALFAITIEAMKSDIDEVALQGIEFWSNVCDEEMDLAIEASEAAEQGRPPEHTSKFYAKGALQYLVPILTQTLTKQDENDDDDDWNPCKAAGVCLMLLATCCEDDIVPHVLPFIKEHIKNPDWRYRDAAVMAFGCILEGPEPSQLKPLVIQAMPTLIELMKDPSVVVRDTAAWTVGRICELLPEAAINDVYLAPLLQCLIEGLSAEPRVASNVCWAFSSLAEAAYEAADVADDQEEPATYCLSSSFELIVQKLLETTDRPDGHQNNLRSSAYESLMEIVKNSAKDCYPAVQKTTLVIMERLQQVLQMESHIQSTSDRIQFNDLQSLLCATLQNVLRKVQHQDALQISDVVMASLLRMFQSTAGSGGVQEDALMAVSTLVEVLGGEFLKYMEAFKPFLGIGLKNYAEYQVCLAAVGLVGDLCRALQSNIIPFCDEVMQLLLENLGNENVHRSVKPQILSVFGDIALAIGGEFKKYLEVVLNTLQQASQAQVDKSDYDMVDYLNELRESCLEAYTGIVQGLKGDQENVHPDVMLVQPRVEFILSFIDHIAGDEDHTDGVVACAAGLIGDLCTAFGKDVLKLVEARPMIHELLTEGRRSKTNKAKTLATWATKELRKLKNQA

[2] = molecular target: T1, Cy5-labeled karyopherin β1 (KPNB1); experiment: single-molecule pull-down (TIRF microscopy); GST-NUPR1 (100 nM) immobilised on PEG-coated quartz via neutravidin and biotin-conjugated GST-tag antibody; 5 nM Cy5-labeled KPNB1 in imaging buffer (4 mM Trolox, 0.2% glucose, 50 mM NaCl, pyranose oxidase, catalase); spots counted up to 1 h, then unbound KPNB1 washed out for dissociation; exponential fits; settings: both partners purified

- Kd [1]: 0.75 nM
- Kd [2]: ~0.65 nM
- koff [2]: 0.0003 s⁻¹
- kon [2]: 467000 M⁻¹ s⁻¹
B1: GST-NUPR1 (nuclear protein-1) recombinant protein (natural protein, UniProt O60356 1-82, looked up)
chain: MATFPPATSAPQQPPGPEDEDSSLDESDLYSLAHSYLGGGGRKGRTKREAAANTNRPSPGGHERKLVTKLQNSERKKRGARR
notes: Nuclear protein-1 (NUPR1, p8/Com-1); Held on the PEG-coated quartz surface through neutravidin and a biotin-conjugated GST-tag antibody; No catalogue number is printed; also called p8; Com-1; source: bought: NOVUS Biologicals (recombinant protein)
